Results as given in the DeepSol protein solubility set.

Assay: soluble on expression in E. coli; label from the status in PepcDB or PDB records

| Sequence | soluble on expression in E. coli |
| --- | --- |
| MAHHHHHHMSAPKEGNRGESKEKFWLYAFRDHLANLRAFSNCIETADVNGVGDYQLLVADGSKRIKVYAGTSLQRELPLFGVPSAITSFFMDDADAFGKPVVAVATGPYIFMYRSNKPLYRFMVPPVPLNPQESAIWQDLATEALTVEEAVKQLESLLDSGVETSSRTLELLLETPEERGEFVSRLRSVPLIQMDVVCCLTSIPLNSLDEGGRSVLVIGTEAGFLYVLKHNAAEVALKVVLPRTPVFLIAAGCFEVDYRMVVACRDGRVYSIKQGNLQNAVIQPDAQPCAIARYNNLIAVATTANTLAYYNLKGKKQQSVFLPCSISGLSTINDTVTGEARGLVVALSNGEIRVYVGTQLHHVSLAYGTVTAMKFGRYGRSDGALVLVLQNGSLVVELLHRGVNLSCSKTVETGPPPQQDIPIPIPHLSSVFATQSSRERKHGVEMYQLFQYDLSQLRLTTAKAYLDMIANGSVPSELGNVTQENEGVAEPSLRLNAVVQGLGPVFKVKVQLQNVGEAPLHAVRVVFCLSEDNVYCMPQQIFLIPTLLPSVPLSCAAFVTTSEGEAKGNAILVVATGPKSRTPLARTLVDLPEVEAMAEV | not soluble |
| MAHHHHHHMSATRDGSRSHSDGGFDGRSLLSEQTKLLRESTPADINFIQFLKLRLSAQQRATAQRNYWQRVQREAADSMNANTAHRQGRGGISASVAPVSTSAAGRESEASSNHIGSGRRNWHAAGSAEGASFSTYDAEHMMLEHSTASFGTLSKQDAFTRATSHGAVPPPTVHQHSFEDLRAAVLKRRSTPASELTDFVAVSTAELSEDGNSSQRRPSGPLQEEDAYALAPFIASSYSAAAAAAIDERPAMACGKPQVPVDVDEMKDVALEPCPHCGRTFAPARLERHVVTCERHRNTLPKTKGDMKSCRAFSSRKKPDRTAGGDGAAASAAATANTAGAAPGGPLRWSTDTAIKPEKWRKQSAQLRNAMAGASVAVDDDRVLCPSCGRHFSDDVAARHIPICKSKGGRAA | not soluble |
| MAHHHHHHMSEGKRATSAAPEAKYNAYAEAADPDRYRVADALLFTCAEHGKACVLCVTAGKNGRSGRTAAVGATLFWLTCPNLNAIIARFEGHRCVQAVSAAMAQQPCLCDWHVQSHDVYASRAKDLLSPAQWCFFESHFLSDEQPSLHKYGNAAVSHASDMKCLHALVAQTLAGVANPVGSVVVNYILLQHKLVCEAADTGNTEQQGVEEKRLLMKATLNSTRLFSDFTTAFVRAASERPREDWHALHNVSFEVPLPEGNMWCKTAVQYMWQVDSQLAALCPDLCARALTVHVALGGPSRRRHKKHRMN | not soluble |
| MAHHHHHHMSGNDLLPLWIGTPQRGVTHDDTADPYTSKVGGQAVYFRLGASTAEQQSAGALSKYFQCPQCKSTAQVSLLCQVYAPLEVYDRVLYILTCAACTRRPRAAASLQGSVPAPALTTGTSKKSGLAAAARSHTSFCFALRSQNFSREHFAELQKQLRAEAQRATEDEKEKAENDAPLFGGGDDDWGDDADDWGTEEGPVKEAKPSPAEPLDDAGDKNGALEKTPNELPEFPLASRGMTVPLKGTLYTSGLPLDLYEEPPPKQTKELSIEEQLAAAKSMYGSSAALDTSGFEEDDEAPEERCVREYMEHMERTPSQCVRWCLGGTPLRTSTTPIGVNGSSLPPPCPACGAVRQFEMQLTAPVVFYLTKDIGEAKNTALHFSNVLVYTCSSNCYNTNSNLPYLPEYVVVEDEL | not soluble |
| MAHHHHHHMSIDAGLCDRYVVFLDIDGVLLPVPKFTFGGGNLSGRCAQTLKRLIAALGGRDKVTLVLSSTWRNHPVMVDRLNTFMQKEAGDGIPVVSERTPNGTVLMSSVTYYADDPSEQRLVRDRVDEVYRWLHTHITDHPEAIGGRWFAIDDMQLDVDERMRGHFLHTQTDVGITEADVDTACAMIASHPSPTEAYAAAVAALADPALKAEEVEIQRVLQSRLEAQLAATTAELTEAQEKMAALSAEKKDLIKELAEKQRSIDDMRYRLAVYDFSKRYPCLATAVELAGTKSGAERRAMDAAIRTFVTLLMDRKELQKKMRSEAKKVKQAS | not soluble |
| MAHHHHHHMSITSRFIGGVKHLLKGGSMKYLAAGEPYCPFGEAFGLTILPEYILEDDASNLRKGYVDVYTRASDRIILNDGRFQLPPLPPASFMPLLERLEQDNVVPKSWLNNQTANLYEPGDFIRAHIDNLFVYDDIFAICSLGSNCLLRFVHVQNGEELDVMVPDRSVYIMSGPARYVYFHMVLPVEAQRFSLVFRRSIMESDGGF | not soluble |
| MAHHHHHHMSLITTICRHPLASKRFMIVFRNEEGEELPEIFELRTRYEAIAPIAKGAYGFVCAATDNDLVENFHMSPPEEYNDPSLSKEERLDIYESHTTVAVKKLRQLFEQNRPRMWLCATREIQLMMAFKHENVMSALDFFIPLGDCERMTYESVEYLRHNFDSVYIVMKKMEYTLREVLESSVFTTTDTQDECGKLSNGKITSSAGTEKHDDGAHDDINKSTARRNERIARCPQTHLVLHPLARDYRMFILYQLLRGVGYMHLCLVIHRDIKPENIMLDRNYNTRVCDFGQGRDAVATELDGVLQTFLDNCTQWYAAPETLTLANVSSPSGFVDQKTLHAADVWSIGCIAAEMVIGRPLFYCRHSGGVGQLNAIMGVLGKIPEEAAERILQHRDEDTQKLFESVMRREMQQHLHKPSTLRRLLQSPYGDVDEEEIRLIERLLCYDPSQRITIQEALQSNYFINEGYEPVIDPDDTATHVRAVEAKEVVDAVRGRRFLWSLFLKHHPEVEELMRVLEIRRNSSSTDSTEVPPPACV | soluble |
| MAHHHHHHMSLPIMSVVRMAVQELPLLSFAPTSLVSDGCVFLPTLSDCSAFAGCSITSATLQCDGTLLIKVVPAILRLIPLKGISSSHGYSSLAAGGSHSEAVALLKGLPTVRLQAVSPVFPLFTPGGCVEYFSATSQQTTAAVPVLTNTIREHLRRLRAYVPQHLDELVPSAPSKVSSWFVVSYPGADAVPEPCLFVLPDVLVVRTVMSQVGSRKIPPHHKRSVAVMGQSGVAKLLEELKWSGCAVRVVDDANHVCVLPPTLTAASQMKQVTH | soluble |
| MAHHHHHHMSLSIHTNYGDIKIELFCYEVPKTCKNFLALCASGYYDNTKFHKNIKGFAIQGGDPTNTGKGGQSIYGKYFEDEFDSTLKHDKRGIVSMANKGKPNTNGSQFFITYSRQPHLNGIYPVFGKVIDGMDVLSVLENEPVGEKSRPIKDIIIETITIHANPIAEEESVDN | not soluble |
| MAHHHHHHMSMNNPAPSPQAPMAAPLDASATVHPRENLAVSAPPGATGAGHNKRLPEELAEFLHTQPPRMETINERKQLFCTRLYMTPPRVLATEGAERRGETLGASLTATGTTSNDSVVGAPLLRSPPPAVLPAAGAPASLKIAKTVPFSEEEHLAWLCAPASPTESRTSAAVPPEAAASSRGLARTERISHAQSEGVRRHEPDRRAVGATATQQPHLSHGASDAHGNDAPARLQGLVAASMATAPNPATPLALQHGEISYKSSFSVLTSWDALMVAPPLLRTTPRMPSLLTQDVENIGTAAMHLNRSTTVTHACASDDVARIPSTGSRAELLIGTSPATEKGEARQEEARADAVLQQPVFPSSCCTRSPTTVPSRLKYDGHGLSPEDSLHQVEEDSARTFVKHFTNGLVFVDPPWFICPVLLDNCEHPYYMTWLDELEVGSVEEAVAETKAKLLTDA | not soluble |
| MAHHHHHHMSNCPHPRGDCGGRSVAAEGTLVPSHISCGDFTFQGGQTPRKELAGVHTSALMQPGLSSAVPSNSILSFSHDVVAAGNGMPPSVSPASSEKKKVLGTSGGGGSAEGTLNSANSSDQGPTGTPVKRNTKPLVPQQHVTKCQLTPNDAAASGLLITTPETPCNEKNPVYAAVGAARQSRERMISAENFTVIQPGGKLRTHLPPQRESGSDKKGKK | soluble |
| MAHHHHHHMSNHGGSSSLDALGGVETAAAETTRNIVLGLPKDGPVPGSSDAASLQAAEAFIGSIQQEIMACDMANARAMELYARHWWTKVPYFGKRFGSTTATLEVTGADGGGVSGLPACTGTSDGQHKHMRLERSSEVAAVPGTSRGQQQRLNSWFFKLRHPGWVPIIQRPWVPYFCIGCLMLVWTPDIWKLRTLHWCDYQYAEFRRAVHRAYWRATMSAEDYKELMEELERGRPPPFGVSKCPL | not soluble |
| MAHHHHHHMSPASLAKSSQDKTAPSTEGTTRFGDSSPPVAAAASPAMYGQPWNTPTTLHSLVESVTRESGEAAAARAGTSKSTVPRLAVSRSLPCSTTVVQETVTNTGRVVSTVATGAAAPSSLLTGTDTPTPLWRSTATTAAVRAEHLRELEDFLEQRGGRGTSMEGRHKVIQKALSLLPVVYPPLAKVAEPMQRYIEDVAASLRRAATEKGRSAAASGERAVRAVRSVFRREDTRAHAGEEAGRGGGKGGARCRLSPCVQERDVELMAVKEQLMQRMNTCEKTEDQFRDFRHLIASVFNTNQQLNLRIEQLEEVLARHRIDLPPASEEMMAFQTSLDGQRSFVPQASTVDGDGDDDSSSGG | not soluble |
| MAHHHHHHMSRLLKHYGSCKTAFFCCDIQEKFMGRIANSANCVFVANRFAGLHTALGTAHSVYIVTEQYPKGLGATSADIRLPPDAHVFSKKRFAMLVPQVMPLVDLPEVEQVVLWGFETHVCILQTAAALLDMKKKVVIAVDGCGSQSQGDHCTAIQLMQSWSGDGCYISTSESILMQLLKDASDPVFKTIAPLMKQTHPIRI | soluble |
| MAHHHHHHMSSSAEEKEAKKQEELRLAGSDSEGVRAAVKAQRELKKKRDALRKVQKKIRSGGSDAEVAAAIEQEAALLAEIGHLEALRGASSAPSTAHVAAASFTSTPATAAASPGALVTVATNKSSGAKAARSGEPAKEITAEERAASAKRLHDLVQGAMDANRLKCLHVLPRDAVVHPRIAEVAVLMEQMLLVGGSARALALISAFRELSRTTTVLAVPSLNEVNTTAFEKLIQINFDFVRRKREASAGMRHVKDVLVRRFVALRDEVIHPKPNMVDLIKDL | not soluble |
| MAHHHHHHMSSVINYEKFEKIDISSSDDDNKKKLNPHLTKLDNKDKVVIGPNGLTILKNNNDEKIKHDKYNNTSKNVEEIKDKNDEYKTIYNETNNEILNNKNDNIHVQNMNNYVADDKKYKDMFINGAVVPYEYIWNQSIHYINAFICLPLNCKAKNLIVDIKEDKLIVKIKNYKCGIIYNNNNNNNKTNQHNTQSNSFHDNVEILVDKKFPFKINTDEDTQIWEIKNMQINWYTLFNLSNEINNQNVHYLFEDYNMLDKQETFLYISVKKINEIENAYIWWSTLFKNEHPIKIENLPSRSSTNKAKKTMNSFKTAWDEAHEIFKKNISMKQLPFRIDSS | soluble |
| MAHHHHHHMSVATEMKVEEGIHLCGDQEFKLEDISSCVSEIFEKKKKYENIPFIQVAPMINVTNRHFRALVRTITRRAQVWTEMIVDNTLLYNLNNLEEHLGFNSNEHPIVCQLGGSDATSLAEAAVLVEQAGYDEINLNVGCPSTKVANKGAFGAYLMKKPEHVRNIVYEIKRKVHIPVSVKIRTGVDDCDSFPFLRSFVECISSVGCSHFIVHARKAWLKGLDPKQNRSVPPLEYPKVYSLCQLYPHLKFTLNGGVKTVEEAVALLNGYLPKKGNVDSEKTYVQVKNYQVNPLHGVMLGRACMENTTVLSQTDQLVYNEKPPHTAFSRRTVLDAYKSYLEENSSLCSLSSAFELLKPVLGILKGMPGHRIFRNKLDMYIRNYASTLPCSGILEKAMVDVDAVAPGCLDLPLADYKLQQEYIKNY | not soluble |
| MAHHHHHHMTDPTRRDPTEFLRVLRRMSNTTSWQKAMIFASKGRMVGYRLTLEHYNTVLYSQSMWGRALEMIKVIRAMQQDGVQPNGATYYYIVNGMANAEHGYNYDFNINHRLEKLQHWRVALNALQACEANGFDSTDTMHNSVIVTMTIPGMNHWREALQVLKKIIDEDRQLHPNMVRFLHDCLIRNYRPREASDLLRCAAERGVKGYETAWETDVYKGKPTDAQLEASQAEAAVTDAAGTECVAGSSGALSSSTSDCKKAAHNSAQASAAATLMALQLRGDQTLPPPQMRSALQEEMERSITAERQALRPFTAGLHYTEMRSVFRPRVHRQLWYQWHQIANRYRPTASLKRRQLAPRDSPTGIPAWNRL | not soluble |
